Experimental data from publication PMC5429858.

Tested on: EZH2 (recombinant PRC2 complex)
Assay: pull-down (streptavidin) + western
Details: Folding buffer 100 mM KCl, 50 mM Tris-HCl, 5 mM MgCl2, 0.1 mM CaCl2, 0.5 mM ZnCl2 with BSA and RNase inhibitor (pH not given); PNA 30 min 37 C (legend: 1 h …)

HOTAIR full-length lncRNA
binding signal (% reduction of binding): 80
